Several values for one entry are separate records, joined by “and”; a condition that tells them apart may be missing. Identical values can stand only once.
Experiments:
[1] = target: Aged MuV nucleoprotein (NWT kept at 4 °C for 4 weeks, digested by residual impurities) (mumps virus) (UniProt Q77IS8); assay: cryo-EM structure; filaments of NWT after 4 weeks of digestion at 4 °C; helical reconstruction of three classes (NC_(helix-dense), NC_(helix-hyper), N_(ring-stacked) with C13 symmetry); with enwrapped RNA
[2] = target: the molecule itself; assay: cryo-EM structure; single particle analysis of freshly purified NWT rings with enwrapped E. coli RNA; ~1 mg/mL; 20 mM Tris-HCl pH 7.4, 150 mM NaCl; micrographs at 0°, 20° and 40° tilt; 2D classification and refinement with C13 or C14 symmetry

Row | Molecule | stoichiometry N [1] [protomers] | stoichiometry N [2]
1 | Aged MuV nucleoprotein (NWT kept at 4 °C for 4 weeks, digested by residual impurities) (from UniProt Q77IS8 1-549) (domain or fragment) | 13 | 
2 | Mumps virus (MuV) nucleoprotein, full length (1–549), freshly purified (natural protein, Mumps virus nucleoprotein (N), full-length gene 1–549, synthesized by GenScript, cloned into pET28b; Purified with enwrapped endogenous E. coli RNA; Only residues 1–373 are resolved in the maps; also called NWT; MuV nucleoproteins; source: E. coli, purified (nickel-nitrilotriacetic acid resin, Superose 6 gel filtration), freshly made) MSSVLKAFERFTIEQELQDRGEEGSIPPETLKSAVKVFVINTPNPTTRYQMLNFCLRIICSQNARASHRVGALITLFSLPSAGMQNHIRLADRSPEAQIERCEIDGFEPGTYRLIPNARANLTANEIAAYALLADDLPPTINNGTPYVHADVEGQPCDEIEQFLDRCYSVLIQAWVMVCKCMTAYDQPAGSADRRFAKYQQQGRLEARYMLQPEAQRLIQTAIRKSLVVRQYLTFELQLARRQGLLSNRYYAMVGDIGKYIENSGLTAFFLTLKYALGTKWSPLSLAAFTGELTKLRSLMMLYRGLGEQARYLALLEAPQIMDFAPGGYPLIFSYAMGVGTVLDVQMRNYTYARPFLNGYYFQIGVETARRQQGTVDNRVADDLGLTPEQRTEVTQLVDRLARGRGAGIPGGPVNPFVPPVQQQQPAAVYEDIPALEESDDDGDEDGGAGFQNGVQLPAVRQGGQTDFRAQPLQDPIQAQLFMPLYPQVSNMPNNQNHQINRIGGLEHQDLLRYNENGDSQQDARGEHVNTFPNNPNQNAQLQVGDWDE |  | 13 protomers and 14 protomers
